Measured values from patent US20220016215A1, “GIP RECEPTOR AGONIST PEPTIDE COMPOUNDS AND USES THEREOF” (TAKEDA PHAARMACEUTICAL COMPANY LIMITED, priority 2018, published 2022).
Starred links: 1 amine or outer side, 2 acyl side, 3 side chain; linkers in the order of their positions; H or OH if unused. Non-standard residues stand in square brackets, D forms with d. Groups on a side chain read outwards from the residue. No end group written: not given here. *: point of attachment. C15 diacid = O=C(O)CCCCCCCCCCCCCC(=O)*; γGlu = O=C(O)[C@H](CCC(=O)[*:2])N[*:1]; Palmitoyl = CCCCCCCCCCCCCCCC(=O)*; acyl = not defined here; Aib = CC(C)(N)C(=O)O

How the values were obtained:
human GIPR [1] = biological target: T1, human GIPR (Homo sapiens, UniProt P48546); experiment: Agonist activity on human GIPR, CRE-luciferase reporter assay (increase in intracellular cAMP as indicator); assay type: cell-based; conditions: for Selectivity Ratio (B/A): GLP1R EC50 / GIPR EC50
T1 construct: expressed in transfected cells
T1 sequence (P48546 22-466): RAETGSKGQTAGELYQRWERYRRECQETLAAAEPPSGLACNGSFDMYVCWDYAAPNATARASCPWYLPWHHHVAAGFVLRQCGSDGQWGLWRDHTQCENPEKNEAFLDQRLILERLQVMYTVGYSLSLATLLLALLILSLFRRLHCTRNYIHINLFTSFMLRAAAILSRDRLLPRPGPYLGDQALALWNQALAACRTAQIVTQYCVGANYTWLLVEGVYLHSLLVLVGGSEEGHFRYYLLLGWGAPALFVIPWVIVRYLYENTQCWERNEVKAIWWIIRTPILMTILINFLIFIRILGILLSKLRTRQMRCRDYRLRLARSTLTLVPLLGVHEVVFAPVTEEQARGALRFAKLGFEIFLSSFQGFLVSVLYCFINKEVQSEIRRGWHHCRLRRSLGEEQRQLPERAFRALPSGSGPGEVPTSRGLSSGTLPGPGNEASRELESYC
From the text: The human GIPR gene having an identical sequence to Genebank Accession No. U39231 is cloned into a pMSRα-neo vector to prepare hGIPR/pMSRα-neo.
(2) Construction of Reporter Plasmid Expressing Cell
Luciferase reporter gene with a cAMP-responsive sequence located upstream is transferred to a CHO-K1 cell to construct a CRE-LUC/CHO-K1 cell.
(4) Transfer of Human GIPR Gene to CRE-LUC/CHO-K1 Cell and Obtaining of Expressing Cell
The plasmid hGIPR/pMSRα-neo obtained in (1) is transferred to the CRE-LUC/CHO-K1 cell obtained in (2) to obtain a transformant. Subsequently, the cell line inducing the luciferase expression, hGIPR/CRE-LUC/CHO-K1 cell, is selected from the obtained transformant by adding GIP.
25 μL each of the hGIPR/CRE-LUC/CHO-K1 cell is inoculated in a 384-well white plate (Corning) in such a way as to provide 5×10^3 cells/well and may be cultured in a HamF12 medium containing 10% fetal bovine serum, 100 U/mL penicillin, and 100 μg/mL streptomycin in a CO2 incubator at 37° C. overnight. 5 μL of a medium containing a test compound is added to the cells and incubated for 4 hours at the indicated concentration in a CO2 incubator at 37° C. Steady-Glo (Promega) is added in amounts of 30 μL and shaken under light shielding. Twenty minutes later, luciferase activity is measured using a plate reader Envision (PerkinElmer). The GIPR agonist activity is calculated with increase in intracellular cAMP concentration as the indicator when the luciferase activity in the presence of 10 nM of GIP was 100% and the luciferase activity in the case of adding DMSO instead of the test compound was 0%.

human GLP-1R = human GLP-1R (human, UniProt P43220 24-463); experiment: cell-based or functional assay
human GIPR [2] = biological target: T2, human GIPR (human, UniProt P48546 22-466); experiment: cell-based or functional assay
T2 sequence (looked up): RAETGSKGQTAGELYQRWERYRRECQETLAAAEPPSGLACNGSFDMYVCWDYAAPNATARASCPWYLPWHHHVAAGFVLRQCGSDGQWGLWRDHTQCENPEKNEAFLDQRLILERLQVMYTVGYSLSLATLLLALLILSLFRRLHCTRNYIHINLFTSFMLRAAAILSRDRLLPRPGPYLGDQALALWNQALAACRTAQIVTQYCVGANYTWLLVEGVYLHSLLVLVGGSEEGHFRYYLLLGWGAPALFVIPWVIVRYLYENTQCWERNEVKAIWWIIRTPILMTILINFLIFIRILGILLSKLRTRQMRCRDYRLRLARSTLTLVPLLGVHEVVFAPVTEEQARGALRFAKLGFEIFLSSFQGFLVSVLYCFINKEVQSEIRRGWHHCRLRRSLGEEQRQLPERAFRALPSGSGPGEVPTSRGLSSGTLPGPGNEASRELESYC

Molecule: YAibEGTFISDYSIALDKIHQQDFVNWLLAQ(Lys-(ethylene glycol)2-C15 diacid)G-OH [Compound 31]
- Selectivity Ratio (B/A) (human GIPR [1]): 83090

Molecule: YD-AlaEGTFISDYSIAMD(Lys-(OEG-gGlu)2-Oda)IHQQDFVNWLLAQKGKICNDWKHNIIQ-NH2 [Compound 13]
- Selectivity Ratio (B/A) (human GIPR [1]): 21,369

Molecule: YAibEGTFISDYSIALDKIHQQ(Lys-(ethylene glycol)2-C15 diacid)FVNWLLAQRG-OH [Compound 24]
- Selectivity Ratio (B/A) (human GIPR [1]): 82783

Molecule: YAibEGTFISDYS(Lys-(ethylene glycol)2-C15 diacid)ALDKIHQQDFVNWLLAQRG-OH [Compound 32]
- Selectivity Ratio (B/A) (human GIPR [1]): 83090

Molecule: YAibEGTFISDYSIELEK(Lys-(ethylene glycol)2-C15 diacid)AQRAFVEWLLAQGPSSGAPPPS-NH2 [Compound 23]
- Selectivity Ratio (B/A) (human GIPR [1]): 3364

Molecule: YAibEGTFISDYSIALDKIHQQ(Lys-(ethylene glycol)2-C15 diacid)FVNWLLAQRPSSGAPPPS-NH2 [Compound 29]
- Selectivity Ratio (B/A) (human GIPR [1]): >100,000

Molecule: CC[C@H](C)[C@H](NC(=O)[C@H](CO)NC(=O)[C@H](Cc1ccc(O)cc1)NC(=O)[C@H](CC(=O)O)NC(=O)[C@H](CO)NC(=O)[C@@H](NC(=O)[C@H](Cc1ccccc1)NC(=O)[C@@H](NC(=O)CNC(=O)[C@H](CCC(=O)O)NC(=O)[C@@H](C)NC(=O)[C@@H](N)Cc1ccc(O)cc1)[C@@H](C)O)[C@@H](C)CC)C(=O)N[C@@H](C)C(=O)N[C@@H](CCSC)C(=O)N[C@@H](CC(=O)O)C(=O)N[C@@H](CCCCN)C(=O)N[C@H](C(=O)N[C@@H](Cc1c[nH]cn1)C(=O)N[C@@H](CCC(N)=O)C(=O)N[C@@H](CCC(N)=O)C(=O)N[C@@H](CC(=O)O)C(=O)N[C@@H](Cc1ccccc1)C(=O)N[C@H](C(=O)N[C@@H](CC(N)=O)C(=O)N[C@@H](Cc1c[nH]c2ccccc12)C(=O)N[C@@H](CC(C)C)C(=O)N[C@@H](CC(C)C)C(=O)N[C@@H](C)C(=O)N[C@@H](CCC(N)=O)C(=O)N[C@@H](CCCCN)C(=O)NCC(=O)N[C@@H](CCCCN)C(=O)N[C@@H](CCCCN)C(=O)N[C@@H](CC(N)=O)C(=O)N[C@@H](CC(=O)O)C(=O)N[C@@H](Cc1c[nH]c2ccccc12)C(=O)N[C@@H](CCCCN)C(=O)N[C@@H](Cc1c[nH]cn1)C(=O)N[C@@H](CC(N)=O)C(=O)N[C@H](C(=O)N[C@H](C(=O)N[C@@H](CCC(N)=O)C(N)=O)[C@@H](C)CC)[C@@H](C)CC)C(C)C)[C@@H](C)CC [Compound 14]
- Selectivity Ratio (B/A) (human GIPR [1]): >100,000
- EC50 (human GIPR [1]; hGIPR/CRE-LUC/CHO-K1 cells, 4 h incubation, read-out: GIPR EC50 nM (A)): 0.001 nM

Molecule: YAibEGTFISDYSIALDKIHQQ(Lys-(ethylene glycol)2-C15 diacid)FVNWLLAQR-NH2 [Compound 28]
- Selectivity Ratio (B/A) (human GIPR [1]): >100,000

B1: Compound No. 27 (peptide)
peptide: Y[Aib]EGTFISDYSIALDKK([ethylene glycol-ethylene glycol-C15 diacid])HQQDFVNWLLAQR-NH2
- GLP1R pEC50 (human GLP-1R): 6.02
- GIPR EC50 nM (A) (human GIPR [2]): 0.001 nM

B2: Compound No. 26 (peptide)
peptide: Y[Aib]EGTFISDYSIALDKK([ethylene glycol-ethylene glycol-C15 diacid])HQQDFVNWLLAQRG-OH
- GLP1R EC50 nM (B) (human GLP-1R): > 1000 nM
- GLP1R pEC50 (human GLP-1R): < 9
- GIPR EC50 nM (A) (human GIPR [2]): 0.001 nM

B3: Compound No. 8 (peptide)
peptide: YXEGTFISDYSIXXDKIHQQDFVNWLLAQKGKKNDWKHNITQ
modifications: 3,5-diBr-Tyr at 1; Aib at 2; Aib at 13; Nle at 14; C-terminal -OH
- GLP1R EC50 nM (B) (human GLP-1R): 118 nM
- GLP1R pEC50 (human GLP-1R): 6.9
- GIPR pEC50 (human GIPR [2]): 10.7
- Selectivity Ratio (B/A), GLP1R EC50 over GIPR EC50 (human GIPR [2]): 5600

B4: Compound No. 9 (peptide)
peptide: FXEGTFISDYXIAXDKIHQQDFVNWLLAQKGKKNDWKHNITQ
modifications: Aib at 2; X* = 1-amino,1-cyclopentane carboxylic acid at 11; Nle at 14; C-terminal -OH
- GLP1R EC50 nM (B) (human GLP-1R): > 1000 nM
- GLP1R pEC50 (human GLP-1R): < 6
- GIPR EC50 nM (A) (human GIPR [2]): 0.004 nM
- GIPR pEC50 (human GIPR [2]): 11.4
- Selectivity Ratio (B/A), GLP1R EC50 over GIPR EC50 (human GIPR [2]): > 100000

B5: Compound No. 5 (peptide)
peptide: Y[Aib]EGTFISDYSIAMDKK([γGlu-Palmitoyl])HQQDFVNWLLAQKGKKNDWKHNIIQ-OH
modifications: not fully specified; also: acyl given as C16DA in synthesis
- GLP1R pEC50 (human GLP-1R): 7
- GIPR EC50 nM (A) (human GIPR [2]): 0.001 nM
- GIPR pEC50 (human GIPR [2]): 11.9
- Selectivity Ratio (B/A), GLP1R EC50 over GIPR EC50 (human GIPR [2]): 93300

B6: Compound No. 16 (peptide)
peptide: Y[Aib]EGTFTSDYSI[Aib]LDKIAQRAFVQWLIA[Aib]KGKKQEWKHQITQK(acyl)-NH2
modifications: reading uncertain; also: Lys43 acylated, acyl not given here
- GLP1R EC50 nM (B) (human GLP-1R): < 0.02 nM
- GIPR EC50 nM (A) (human GIPR [2]): 0.001 nM
- GIPR pEC50 (human GIPR [2]): 12

B7: Compound No. 14 (peptide)
peptide: Y[dA]EGTFISDYSIAMDKIHQQDFVNWLLAQKGKKNDWKHNIIQ-NH2
- GLP1R EC50 nM (B) (human GLP-1R): 933 nM
- GLP1R pEC50 (human GLP-1R): 6.03
- GIPR EC50 nM (A) (human GIPR [2]): 0.001 nM
- GIPR pEC50 (human GIPR [2]): 12.3
